Data on 21 sequences can be found in the DeepSol protein solubility set.

This series is described as follows: soluble on expression in E. coli; label from the status in PepcDB or PDB records.
“MARIIVVTSGKGGVGKTTSSAAIATGLAQKGKKTVVIDFDIGLRNLDLIMGCERRVVYDFVNVIQGDATLNQALIKDKRTDNLYILPASQTRDKDALTKEGVEKVLNDLGEMNFEFVVCDSPAGIESGALMALYFADEAVITTNPEVSSVRDSDRILGILSSKSRRAENSQEPIKEHLLLTRYNPGRVNRGDMLSMEDVLDILRIPLVGVIPEDQSVLRASNQGEPVILDKESDAGKAYEDTVDRLLGEERPFRFVEEEKKGFLKRLFGG”: the “soluble on expression in E. coli” value is recorded as “not soluble”. To “MSLSQRGLEALLRPKSIAVIGASMKPNRAGYLMMRNLLAGGFNGPVLPVTPAWKAVLGVLAWPDIASLPFTPDLAVLCTNASRNLALLEELGEKGCKTCIILSAPASQHEDLRACALRHNMRLLGPNSLGLLAPWQGLNASFSPVPIKRGKLAFISQSAAVSNTILDWAQQRKMGFSYFIALGDSLDIDVDELLDYLARDSKTSAILLYLEQLSDARRFVSAARSASRNKPILVIKSGRSPAAQRLLNTTAGMDPAWDAAIQRAGLLRVQDTHELFSAVETLSHMRPLRGDRLMIISNGAAPAALALDALWSRNGKLATLSEETCQKLRDALPEHVAISNPLDLRDDASSEHYIKTLDILLHSQDFDALMVIHSPSAAAPATESAQVLIEAVKHHPRSKYVSLLTNWCGEHSSQEARRLFSEAGLPTYRTPEGTITAFMHMVEYRRNQKQLRETPALPSNLTSNTAEAHLLLQQAIAEGATSLDTHEVQPILQAYGMNTLPTWIASDSTEAVHIAEQIGYPVALKLRSPDIPHKSEVQGVMLYLRTANEVQQAANAIFDRVKMAWPQARVHGLLVQSMANRAGAQELRVVVEHDPVFGPLIMLGEGGVEWRPEDQAVVALPPLNMNLARYLVIQGIKSKKIRARSALRPLDVAGLSQLLVQVSNLIVDCPEIQRLDIHPLLASGSEFTALDVTLDISPFEGDNESRLAVRPYPHQLEEWVELKNGERCLFRPILPEDEPQLQQFISRVTKEDLYYRYFSEINEFTHEDLANMTQIDYDREMAFVAVRRIDQTEEILGVTRAISDPDNIDAEFAVLVRSDLKGLGLGRRLMEKLITYTRDHGLQRLNGITMPNNRGMVALARKLGFNVDIQLEEGIVGLTLNLAQREESEGGSHHHHHH” belongs “soluble”; to “EFIGCNDHTVVIEDDGRRWVTREPALVYFNKHTWFNVVAMIRDSGVSYYCNIASPFVLDREALKYVDYDLDVKVFPNGERRLLDMDEFEQFSKKWRYP”, “not soluble”.

As to “MEKKLVPQSISKERLQKLEAQATLTPQQEEAKARKIEREKARLKELNIPTESKESKDCSPAGMINPYALTEVILERPLDWSNPRTTDIVERVLGSSMQDLSKGDSVLRAGRDQNAEVKIVDSVLTKTQRGQDGLERILESFNDYDMPPEEKEEAAPKAKKAAQKLDIDDLREQALSSTTITKEISKIILPTKNLRDDNNTVHQYREVGFQSNGAHNLWDTVVQGIAGDC”, the “soluble on expression in E. coli” value is on record as “not soluble”. To “MHGLNKDIIFPLQIFALSNNVLYNFPEQGVVPVLYVIYAQDKADSLEKRLSVRPAHLARLQLLHDEGRLLTAGPMPAVDSNDPGAAGFTGSTVIAEFESLEAAQAWADADPYVAAGVYEHVSVKPFKKVF” belongs “not soluble”.

On to “MSLSDFHEVRFPLDVALRGSGGPVRRTEIVTLASGQEHRNSRWADSRRRYDAGLGMRTLDALHAVLSFFEERRGRMYGFRYRDRVDYRSGPPSQAPAPIDQAIGTGDGATRVFALAKTYGGGPQAYRRTIAKPVAGSVRVAVNGVELAAGAVSCDPATGRLTFAPGAVPPPGAAITAGFEFDVPVRFDTDELSIDMAAFTAGEVPRIPLIEIVLEGHHHHHH”, for which the “soluble on expression in E. coli” value is listed as “soluble”. With “MNKRMKMCPACQQGYLYHSKPKYLHDEIILCDECDAVWLKGMNIFYGEYEKDFYSYVPFMESQGITSECIWEGDLFDHPYYEDENSNDMD”, the “soluble on expression in E. coli” value is “not soluble”. “MSLLFDSHLHLDQLSDENIQQTLAHSKIIGMLAVSTNLNSAKKLLNLKQTYPKKLYIAAGFHPEQQLPSLEEQKKLFQWIDEHHSSISAIGEVGLPHYSKRENPNLDYVPYIELLERFILIAKKWDLPLNLHIVHNDVEIALELLQKHNIQRAHFHWFKTDEKSFQKFFSTPYFASLTPDILWNSKTQYVAQHLSLNRLMIETDSPWQHEGFERAGISEQLLAVLQKLAELKSLPLHSVQKQILLNTQQFYQLEGHHHHHH”: the “soluble on expression in E. coli” value is listed as “soluble”. To “MNQNKSNVPVSVAEEPDELSYYRLTLLSFLRESHPDLADDESFVATRSEQAAEAFSAAVRSGLTYDDAAQQANALLFQGLHFSPLDTLVTVLWNEFAAEVPEGSARSVALQLLPECRKVFAGYTLSDDFMFSPEFGQLYDELTGTVVIWLEENGL” belongs “not soluble”; to “MGSDKIHHHHHHMSSATHYILTWQCPDNTGVLAKVSQSLFSHGAFITETSQYSDPYSETFFSRIAFDDRNLTVSSSEFVKALNELAKPLAMQYQLRKRADVPNVLIAVSKDDHCLVSLLTKWRSGALPINIVGVISNHQYCQALSEWHNVPFYHLPVNAETKLEQEAQITDLMEELNIDLLVLARYMQILSDGLCQQLQGKAINIHHSFLPSFKGARPYHQAHARGVKVIGATAHYVTANLDEGPIIAQEVKPINHAFTIEQMVHMGHDLEATALSHAVRIHAEQRVCINGDKTVILA”, “not soluble”.

As for “MENSFELMAREWHKNKADRWSLRYREEIIDTFEKDIFPFIGRRPIADIKPMELLETLKRMEKRGALEKMRKVRQRCGEVFRYAIITGRAEYNPAPDLAGALQTHKKQHLPLEHHHHHH”, the “soluble on expression in E. coli” value is “not soluble”. To “MVRSMLYATDLGLYAPYVMQHALALARTFDAGLYVVHVVEPMGLFAESVLQSYLGEEALQELHGKGAHAFMEGIEQRMLDGFREELGEGHSDLSLIRTVRVVQGEPASVIIEQAHKLEVDLLVLGRHSASAQEGASIGRTAARILQSSGVPVYMVPIMSKALCQKGC” belongs “not soluble”. The value for “MHFETVIGLEVHVELKTDSKMFSPSPAHFGAEPNSNTNVIDLAYPGVLPVVNKRAVDWAMRAAMALNMEIATESKFDRKNYFYPDNPKAYQISQFDQPIGENGYIDIEVDGETKRIGITRLHMEEDAGKSTHKGEYSLVDLNRQGTPLIEIVSEPDIRSPKEAYAYLEKLRSIIQYTGVSDVKMEEGSLRCDANISLRPYGQEKFGTKAELKNLNSFNYVRKGLEYEEKRQEEELLNGGEIGQETRRFDESTGKTILMRVKEGSDDYRYFPEPDIVPLYIDDAWKERVRQTIPELPDERKAKYVNELGLPAYDAHVLTLTKEMSDFFESTIEHGADVKLTSNWLMGGVNEYLNKNQVELLDTKLTPENLAGMIKLIEDGTMSSKIAKKVFPELAAKGGNAKQIMEDNGLVQISDEATLLKFVNEALDNNEQSVEDYKNGKGKAMGFLVGQIMKASKGQANPQLVNQLLKQELDKRLEHHHHHH” was “soluble”; that for “MSLKILFAVSECTPFVKSGGLADVAGALPKALARLGNEVAVMLPKYSQIPEPWKKRMKKQAECTVAVGWRQQYCGIEHMAENDVNYYFIDNEYYFNRDSLYGHYDDGERFAFFSRAVLEAAKVVNVQADIVHTHDWHTAMVNYLLKEEYRKHPFYERMKSVLTIHNLQFQGIFPPDVTHDLLGLEMDHFHYERLECNGFVNFMKAGIIAADHVTTVSPTYRNEIMTPYYGEQLEQVLQYREDDVTGILNGIDDTFYQPKSDPYIEAQYDSGDLACKLENKTKLQQRMGLPEKNDIPLISMVTRLTKQKGLDLVRRIMHELLEEQDIQLVVLGTGEREFEDYFRYAEFAFHEKCRAYIGFDEPLAHQIYAGSDMFLMPSKFEPCGLGQLIALQYGAIPIVRETGGLYDTVRAYQEEEGTGNGFTFSAFNAHDLKFTIERALSFYCQQDVWKSIVKTAMNADYSWGKSAKEYQRIFEQVTRSGRDVLEEGHHHHHH” was “soluble”; that for “MKPYLEEKLEGARKSVPGFALEELKQKIISSPIQFGKSDIDDLVSNLLKRYEQTKENSLIGKIDSIFKEISDIEKVMSAKQPEPAQQQAPVEKPKKKAKLEVIGDDVVSIMVSLRWLEFLLDNYGPENTLDVLDYYESLGWISATVKEQMMKYAKMTGVMNPAQEYKIKPSIQDHIINMLFIEKLRGEEINRDLIEALEREFRTIRKGVDELYGI” was “soluble”. On to “MTTVMKFGGTSVGSGERIRHVAKIVTKRKKEDDDVVVVVSAMSEVTNALVEISQQALDVRDIAKVGDFIKFIREKHYKAIEEAIKSEEIKEEVKKIIDSRIEELEKVLIGVAYLGELTPKSRDYILSFGERLSSPILSGAIRDLGEKSIALEGGEAGIITDNNFGSARVKRLEVKERLLPLLKEGIIPVVTGFIGTTEEGYITTLGRGGSDYSAALIGYGLDADIIEIWTDVSGVYTTDPRLVPTARRIPKLSYIEAMELAYFGAKVLHPRTIEPAMEKGIPILVKNTFEPESEGTLITNDMEMSDSIVKAISTIKNVALINIFGAGMVGVSGTAARIFKALGEEEVNVILISQGSSETNISLVVSEEDVDKALKALKREFGDFGKKSFLNNNLIRDVSVDKDVCVISVVGAGMRGAKGIAGKIFTAVSESGANIKMIAQGSSEVNISFVIDEKDLLNCVRKLHEKFIEKTNS”, for which the “soluble on expression in E. coli” value was “soluble”. To “MSLSVPLLSRVGADRADRLRTDMEAAAAGWPGAALLRVDSRNRVLVANGRVLLGAAIELADKPPPEAVFLGRVEGGRHVWAVRAALQPIADPDIPAEAVDLRGLGRIMDDTSSQLVSSASALLNWHDNARFSALDGAPTKPARAGWSRVNPITGHEEFPRIDPAVICLVHDGADRAVLARQAAWPERMFSLLAGFVEAGESFEVCVAREIREEIGLTVRDVRYLGSQQWPFPRSLMVGFHALGDPDEEFSFSDGEIAEAAWFTRDEVRAALAAGDWSSASESKLLLPGSISIARVIIESWAACEEGHHHHHH” belongs “soluble”; to “MQILQVRLKNLNSLVGEWEIDFTDPAFVSDGIFSITGPTGAGKTTVLDAICLALYGRTPRLGKVSKSENEIMSRQTGECFAEVTFAAQSGCFRCHWSQHRAHKKPDGELQNPRHELAEADSGKILETRLTEVGRQIEKITGMDFARFTRSMLLAQGEFAAFLQAAPDERAPILEQITGTEIYSRISIRVHETRVSARRELDRLSAGLNGIQPLT”, “not soluble”. The value for “MGSDKIHHHHHHMANLLSTCTSESGNIQHISPQNAGWEYVGFDVWQLKAGESITLPSDERERCLVLVAGLASVKAADSFFYRIGQRMSPFERIPAYSVYLPHHTEAKVTAETDLELAVCSAPGFGELPVRLISPQEVGVEHRGKGRNQRLVHNILPDSQLADSLLVVEVYTNEGDTSSWPAHKHDTAVEGQETYLEETYYHRFNPPQGFCLQRVYTDDRSLDECMAVYNRDVVKVPKGYHPVATIAGYDNYYLNVMAGPLRKWRFTWEENHAWINSPDYPR” was “not soluble”.

Regarding “MPKWGNINERRNQLHEVIRLSGMNLIIDDTDHPLIIKVASIQSARMQVYFIDNDDYFQNRLQTADENGVEYDDNDSRAIFYARGVLETVKKLRWCPDVIHCHGWMTALAPLYIKKAYKDEPSFRDAKVVFSVYEDDFKGTFNNDFASKLMLKGINKKDVATLKDPVDYATLCKLAVDYSDGIVQNSEHVNEDVMNYARQSGKLVLDYQAPDALADACNSFYDQVWEAEQK”, the “soluble on expression in E. coli” value is “not soluble”.

For “MKLSLRQLQIFCAVAQHGSTTSAAISVSLSQSATSAALNELESALDTRLFDRVGKRLVLNDNGHALLPQARRMLENAQQIEASFLPGHAGLKTRLRVGCSTTIGNYVLPLILGELRQSTPHLRVDVDMANSMAIARRVADFEIDMGLIEGPCHLPELSAEPWLIDELLIAAGQRHPLALKQQVTLDDLRTAEWLLREPGSGTREEVEQLLLRHLHDLAETRQIGSSEAIKHTLAQGIGISCLSRWVVRDLLASEVLVELPHALPALTRRFFLIRHRDKYISPGLERFWEKCSQFVSQE”, the “soluble on expression in E. coli” value is on record as “not soluble”.
